Measured values from patent US20190250145A1.
Blank lines part the entries; values can stand above or below the substance they belong to.

Legend:
[1] = molecular target: I-IIC-CFluc (carboxyl terminal portion of luciferase attached to I-IIC domain of CaV1.2) [luciferase: P08659]; assay: split firefly luciferase complementation in HEK cells
[2] = molecular target: endogenous β-subunit of mouse heart (CaVβ) (mouse) (UniProt Q8CC27); assay: cell-based or functional assay
[3] = molecular target: GKC-CFluc (carboxyl terminal portion of luciferase attached to GKC) [luciferase: P08659]; assay: split firefly luciferase complementation in HEK cells
Sequence of GKC-CFluc (carboxyl terminal portion of luciferase attached to GKC) [luciferase: P08659] (P08659 398-550): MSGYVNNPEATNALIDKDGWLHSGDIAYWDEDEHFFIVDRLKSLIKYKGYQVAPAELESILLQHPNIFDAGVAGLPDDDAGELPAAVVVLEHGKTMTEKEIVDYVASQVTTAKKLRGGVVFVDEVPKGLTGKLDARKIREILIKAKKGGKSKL

[4] = molecular target: endogenous β subunits of guinea pig ventricular cardiomyocytes (guinea pig); assay: cell-based or functional assay

Sequence of CaVB-NFluc (amino terminal portion of luciferase attached to CaVB) (P08659 2-416): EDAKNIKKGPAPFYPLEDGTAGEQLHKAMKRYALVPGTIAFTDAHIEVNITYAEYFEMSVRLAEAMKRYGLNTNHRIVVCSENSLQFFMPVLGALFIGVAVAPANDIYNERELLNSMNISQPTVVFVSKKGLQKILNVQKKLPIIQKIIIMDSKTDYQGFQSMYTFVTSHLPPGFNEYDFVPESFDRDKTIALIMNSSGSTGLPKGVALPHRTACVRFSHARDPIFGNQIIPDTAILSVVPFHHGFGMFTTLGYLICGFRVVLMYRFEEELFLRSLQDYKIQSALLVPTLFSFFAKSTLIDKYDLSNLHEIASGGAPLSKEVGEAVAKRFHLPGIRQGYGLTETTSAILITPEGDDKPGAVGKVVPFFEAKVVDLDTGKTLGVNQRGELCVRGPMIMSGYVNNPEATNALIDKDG
Sequence of NFluc-NSH3 (amino terminal portion of luciferase attached to NSH3) (P08659 1-416): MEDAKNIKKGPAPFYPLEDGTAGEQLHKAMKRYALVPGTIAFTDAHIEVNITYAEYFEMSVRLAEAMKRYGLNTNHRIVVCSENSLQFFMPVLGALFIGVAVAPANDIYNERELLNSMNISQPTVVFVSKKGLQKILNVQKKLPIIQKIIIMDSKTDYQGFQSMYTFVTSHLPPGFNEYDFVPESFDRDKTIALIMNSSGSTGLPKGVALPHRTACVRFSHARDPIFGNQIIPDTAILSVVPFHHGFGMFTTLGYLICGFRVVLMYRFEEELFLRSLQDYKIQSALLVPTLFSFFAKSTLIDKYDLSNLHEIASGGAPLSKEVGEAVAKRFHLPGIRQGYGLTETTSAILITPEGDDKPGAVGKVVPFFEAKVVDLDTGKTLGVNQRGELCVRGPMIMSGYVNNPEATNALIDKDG
Sequence of I-IIC-CFluc (carboxyl terminal portion of luciferase attached to I-IIC domain of CaV1.2) [luciferase: P08659] (P08659 398-550): as the sequence (P08659 398-550) above

increase in cardiac contractility by 200 nM isoproterenol (Langendorff hearts, nisoldipine present) [2]: 1.2 fold | increase in contractility in response to isoproterenol (isolated hearts, nisoldipine present) [2]: 0 to 25% | increase in fractional shortening by isoproterenol (cardiomyocytes, nisoldipine present) [2]: 25%
Substance: N-terminal 3×FLAG-tagged dihydropyridine (DHP)-resistant (T1066Y/Q1070M) AID-mutant rabbit α1C (from UniProt P15381 1-2171)

increase in whole-cell current amplitude by 1 µM forskolin [4]: 4 to 5 fold
Substance: YFP-tagged mutant (YWI/AAA) AID peptide

increase in cardiac contractility by 200 nM isoproterenol (Langendorff hearts, nisoldipine present) [2]: 3.3 fold | increase in fractional shortening by isoproterenol (cardiomyocytes, nisoldipine present) [2]: 100% | increase of Ca2+ current by forskolin [2]: 1.8 fold | increase of nisoldipine-insensitive current by 200 nM isoproterenol [2]: 1.9 fold | shift of Vmid in the hyperpolarizing direction by 200 nM isoproterenol [2]: 4.4 mV
Substance: pseudo-wild-type (pWT) α1C: transgenic FLAG-tagged DHP-resistant α1C subunit with wild-type AID (from UniProt P15381 1-2171)

More lines, now with the values behind:

Substance: CaVB-NFluc (amino terminal portion of luciferase attached to CaVB) (from UniProt P08659 2-416)
bioluminescence signal, fold over negative control [1]: 15 fold

Substance: NFluc-NSH3 (amino terminal portion of luciferase attached to NSH3) (from UniProt P08659 1-416)
bioluminescence, fold over negative control cells [3]: 70 fold
